Measured values as given in patent USRE47972.

Molecular target: trypsin
Assay: cell-based or functional assay

Substance | Specific Inh. Activity [TIU/mg IαIp]
Highly purified human IαIp (mixture of inter-alpha inhibitor IαI and pre-alpha inhibitor PαI) purified from cryo-poor plasma (from UniProt P02760 206-352; P19827 35-672; P19823 55-702; Q06033 35-651) | 1410
Human IαIp (mixture of inter-alpha inhibitor IαI and pre-alpha inhibitor PαI) purified from cryoprecipitate, a side-fraction of fVIII production (from UniProt P02760 206-352; P19827 35-672; P19823 55-702; Q06033 35-651) | 1410
